In the DeepSol protein solubility set:

experiment: soluble on expression in E. coli; label from the status in PepcDB or PDB records

Sequence	soluble on expression in E. coli
MGSDKIHHHHHHMIIGMSIARMFSRCTPIPNLSVRYNLDLYHLEFPIMAFIRQEDFIDSIHQALQYIACYHSPDFLAAMHDAWQREPSPAARDAIGQILINSYLCAQGQRPLCQDTGIVVAFVSVGMNVQWQASMSLQEMVDEGVRRAYLDPDNRLRASIVRDPAGKRLNTRDNTPSVVHVDMVPGDTVEIHIAAKGGGSENKSKLAMLEPSDDLIEWVLKTVPEMGAGWCPPGVLGIGIGGTAEKAVLLAKQSLFAPIDIQALRARGPQTRAEELRLEIYEKVNRLGIGAQGLGGLTTVLDVKILEAPTHATSLPVAIIPNCAATRHVHFTLDGTGPARLPAPRLEDWPRVALDASTPMRRVDLGKVTREDVISWQPGEKLLLSGKLLTGRDAAHKRIVDLIARGEPMPEGLDFTNRFIYYVGPVDPVGDEIIGPAGPTTATRMDRFTETMLTQTGLLGMIGKAERGEATVQSIKRHQSVYLIAIGGAAYLISQAIKASRIVAFADLGMEAIYEFTVEDMPVTVAVDSRGHAVHDTGPAEWRPRIANIPIFSE	not soluble
KEAMRMLMREELEKVLKTLSPREAMVLRMRYGLLDGKPKTLEEVGQYFNVTRERIRQIEVKALRKLRHPSRSKYLKSLLSLMDENEG	soluble
MTPYNEREVLKLLQEESTQRKGFELIVAQYSEQLYWQIRRMVLSHEDANDLLQNTFIKAWTNIDYFRAEAKLSTWLYRIALNECLTFLNRQRATTTVAIDDPEAAIVQKLESDPYYSGDQVQMLLQKALLTLPEKQRMVFNLKYYQEMKYEEMSEIFGTSVGALKASYHHAVKKIEKFLEEVD	not soluble
AETVESCLAKSHTENSFTNVWKDDKTLDRYANYEGCLWNATGVVVCTGDETQCYGTWVPIGLAIPENEGGGSEGGGSEGGGSEGGGDDIFGELSSGKNAPKTGGGAKGNNASPAGSGNTKNNGASGADINNYAGQIKSAIESKFYDASSYAGKTCTLRIKLAPDGMLLDIKPEGGDPALCQAALAAAKLAKIPKPPSQAVYEVFKNAPLDFKPAAAHHHHHH	soluble
MGKKIITISREYGSGGRQVGLTVAKKLGMEFYDKELIDAAAKEIGFPTEMIADREQRLTNSLLYNFAMGTLYGIAYPREPKVSELPLTEQIYQAQKKAIEEAAKRGSCIFVGRCADYILKSRPDVLRVFIYADRDIRKRRAIEEYGEIEEYIDEFMYQTDKRRRIHYENYTNQKWGSRENYDLMLNSGDLGLDKCVELLCEAVK	not soluble
MALTFTQAVSKLTSKFPHLNLVEFNGVRYPTVIVCPIHGRVTCSTFKSMLDSKSGCPKCASYGVNSHKIPEDTIDKLSKNTVLEDTVTGETLTFPSRASAARSLGINPAAITDRIKGRVHTETLLAGRYKVHICTK	not soluble
MATTKLSATKSTSRAINYAEKRAVEKSGLNCDVDYAKSSFKAARELYGKTDGNQGHVIIQSFQPGEVTPEQCNQLGLALAEKLVPNHQVAVYTHADTNHVHNHIVLNSIDLNTGKKFNNNKQALRDVRAFNDEVCRAQGLSVPEKDTARLRYTQTEKAIADPNTTSTAQYSWKDDIREAIDQSTATNMEEFQKHLNQHGITIERVTPKSITYRHLAENKKVRGRKLGEDYNKGGIQHGFERQIQRRQQQKHKSDTNFQPKRSTSNRHESTERDTGVTQSDWDQFAQDTNELERRRQAAESARLVDEKARRDREKRVREKPTSRPIINIDRDHGLEL	not soluble
MGSDKIHHHHHHMNTSISASWGRYINAIPPRSGEAALAPLSSFVDGQCIYSFGERADQVYQVEFGAVRVYRLAANGRRQILAFHFGGNWFGLQSRDRHSSNAEAIGVTGVRCISLQEEPLFRPALFSAALDNVSAAQEHQLVIGRQSAIERVAAFLLEMSERSGYSRRFELSMSRVDVADYLALTVETVSRSLTKLKHRGFIELHGARGIELVGYRALQNLCL	not soluble
MGSDKIHHHHHHMYNNINYKVLWGHSEYDGSFEIMEFRQLSYFISVAKYLSFTKAAEEHHIAQTAISQQISTLEKQLNVKLFVRNNRAVELTDAGRVLLKEADLITSRVVEAERKTKQAALGFEGSLNVGILGSSEKNFLPVILKRFHKLYPKIGINLSRNSYKKLADDMKGGHLDITFIFPYELNDISHVKYRKLFDYEICLVVNKEHRLARYKKIDVKEIKNEKFIVVGKEEAPSTVKQMRKNCMGDGFKLNVVAECKNLDTMLIMVEAGMGVALVPTCVANDSNNNISYIELENSKQIVEIGVAWMEGNMNPTLKLFLGVLSDLYWDN	not soluble
MGSDKIHHHHHHMQMNLGLDVGYGDVKAVYQREGILEMLKFPTAIAYAEREVGDLSAFAGGEEYEYRGRKYFVGREALVGAFSTRSFEFMKRYSPLFVFKAVKKIHRRTGELVTDVAMGLPLSHYTEANLKELVPLLQRIEVGREVLELNARFYPQGLGVLADYRLSQAGDVNARTDRDMIILDIGFNTVDVIVVERGRIVKGESDTLERHGVSKISLDLAREIKVRMQLDLSEQESKDVLRQGRIRVYGAERDLAELVRESAEKYMDWLIQEVHSKWMARIQRAEKVIIAGGGAYYLQEHIPEEYLPLVHVPDHPEYANARGFLKALDVESGK	not soluble
MQVCRQWVTLSLYNNGKWPKMKYQQLENLECGWKWQYLINKWKDGEPVTRYIDKSEIEAAVQKLRAIEHEPTHVLSWIEEHMSSELDNKLKQAIRAKRKRHFNAEQIHTRKKSIDLDYRVWEKLSLKANELGCTLSDAIEYLLSEASRSEKASKTVNSLKEDLSRLLAE	not soluble
MGSDKIHHHHHHMRSSSKCSSVRFQFFVVELFMTTTQSAGEITGNVLFYNAPEPLNREQHAKLALVHKDKPYAFAAAGTAVPLTVSEFAPAALTFPVIFAGDDRVPLAVMGLNQQENLFIGADGSIEANVYIPAYIRRYPFVLANDDTQDRLIVCIDRGSDLLSEQGQTPLFDAKGEPTEYTQNCIKFCDDFEVERRRTDSFVQILKDNDLFELKKATFQPTDEVGAPVGEPVTVAEYFGVSEEKLNGLSAEKLKELQENGALAQIYAHLVSLLGWDRLINKTMMKQAEAANLN	not soluble
MYDNTTDTKMQAERQKKSCTTVGGVLAYSVPTGLHRCDSAVTRVEEVHMAEMVEIPAALYGRGAVRVVPVDSTVRLDVKIPAALMRKLMIESNRSGVPLTKIVDRLLSAAIAQDSEQEEIRPR	not soluble
GMKQPNYYQDVKQFHQTFHHPGADQPTAIPLDRGVKRATWTAEEAVVEFLHQSSQNETEFLAAIETFKAGLDQAVKKSLKETYPVTEVERLVGQGDALTDALYFIMGSFVEAGLEPGPLFEIVQQANMAKLGPDGQPIFRESDQKVMKPDGWLPPEPQLEAEVVRQMKEKA	soluble
MFDLPVETEEQRRNYRIFRKELIQEGFVMIQYSIYVRVCPSREFANRIENRIKKNLPLEGNVRLLCVTEKQYDDMKLLVGSRQTSETAIGTERLIIILEHHHHHH	not soluble
SKVKEGKDLIVGLDIGTSKIVAIVAEMKPEGGFEIIGLGSHLSRGLKKGVVVNIEATVNAIQRALEEVELMAGCRISEVYAGIAGNHIRGFNSHGMVAIKDKEVTQADVEKVMETAKAVNIPADQ	not soluble
MGSDKIHHHHHHMSTDTDDDSGSHGCKAPDSDGEVAENIAIVAFERKMDTAEDIVDGIGDRYESIDILEYHGDVFEEYWGEYDCFIGLMASGIAMRKTAHLLDDKWDDPAICVVDEELTWAIPITGGHHGANQVADDLASMGAVPAMTTASEAADKQGVEKQAKALDAHVVNGDSTVATNLAVLDDELGPIERLDGPKAVLVDDDVTVLKRNKDDGIVLGCGSVAGADVEQFHAAWEQALDEADLDRDDVEFVATGTRKADEEGMLAAAEEWGLGVIAFEKETLEGFEGPTPSRSKELIGWPGIAEASAIAAGSEHDLLAEKTRYDEAVTVAIGR	not soluble
MGSDKIHHHHHHMPQRLYTYPPLLRGRLLQRYKRFFADIELDSGETITAHCPNTGPMTGVCQMGNLVYVSKSDNPKRKLAYTWELIEVTDNEPTWVGVNTGLPNRVVQALLEQRCLPVLGDYGEVQREVPYGENSRIDFRLTGDRPIYVEVKNTTWTAGRLALFPDTVTTRGQKHLRELTAILLEARAVMLYFINRGDCTAFAPGDSADPTYGQLLRTGIAAGLEVYPCQFQISPEGIDFLGVAPLQL	not soluble
